# Data as given in US20200164114A1.
# Experiments:
# [1] = molecular target: integrin αIIbβ3 on CHO cells (CHO-αIIbβ3) (UniProt P08514); test: cell adhesion inhibition: CHO-αIIbβ3 cells to immobilized fibrinogen
# [2] = molecular target: integrin αIIbβ3 on human platelets (human) (UniProt P08514); test: cell-based or functional assay
# [3] = molecular target: integrin αvβ3 on CHO cells (CHO-αvβ3) (UniProt P06756); test: cell adhesion inhibition: CHO-αvβ3 cells to immobilized fibrinogen
# Sequence of integrin αIIbβ3 on human platelets (human) (P08514 32-1039, chain 1 of 2): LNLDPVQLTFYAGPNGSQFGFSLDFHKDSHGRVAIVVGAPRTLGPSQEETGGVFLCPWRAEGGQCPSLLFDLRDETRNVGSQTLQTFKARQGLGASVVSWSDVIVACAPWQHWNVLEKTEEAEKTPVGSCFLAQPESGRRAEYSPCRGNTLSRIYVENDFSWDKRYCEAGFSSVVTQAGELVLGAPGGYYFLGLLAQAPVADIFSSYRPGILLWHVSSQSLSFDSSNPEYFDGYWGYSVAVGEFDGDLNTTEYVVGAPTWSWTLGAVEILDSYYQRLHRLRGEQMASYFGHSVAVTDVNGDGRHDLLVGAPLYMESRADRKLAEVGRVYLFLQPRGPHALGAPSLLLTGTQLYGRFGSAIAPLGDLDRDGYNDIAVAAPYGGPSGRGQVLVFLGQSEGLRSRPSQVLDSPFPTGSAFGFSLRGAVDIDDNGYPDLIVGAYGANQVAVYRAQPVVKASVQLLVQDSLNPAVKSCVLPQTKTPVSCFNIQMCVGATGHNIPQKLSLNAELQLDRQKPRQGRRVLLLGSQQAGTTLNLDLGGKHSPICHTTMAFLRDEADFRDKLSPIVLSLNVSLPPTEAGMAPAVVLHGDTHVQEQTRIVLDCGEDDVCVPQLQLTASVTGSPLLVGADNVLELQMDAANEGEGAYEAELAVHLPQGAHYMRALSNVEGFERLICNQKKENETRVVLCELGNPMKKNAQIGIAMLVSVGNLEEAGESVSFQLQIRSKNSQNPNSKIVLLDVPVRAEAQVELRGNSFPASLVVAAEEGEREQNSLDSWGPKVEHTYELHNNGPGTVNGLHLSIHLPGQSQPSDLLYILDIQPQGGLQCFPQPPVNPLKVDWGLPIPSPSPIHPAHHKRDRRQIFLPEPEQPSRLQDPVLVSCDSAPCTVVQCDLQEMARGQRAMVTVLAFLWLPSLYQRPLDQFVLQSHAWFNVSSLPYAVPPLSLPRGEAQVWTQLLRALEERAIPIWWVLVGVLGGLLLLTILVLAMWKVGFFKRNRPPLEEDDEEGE
# Sequence of integrin αIIbβ3 on human platelets (human) (P05106 27-788, chain 2 of 2, further chain): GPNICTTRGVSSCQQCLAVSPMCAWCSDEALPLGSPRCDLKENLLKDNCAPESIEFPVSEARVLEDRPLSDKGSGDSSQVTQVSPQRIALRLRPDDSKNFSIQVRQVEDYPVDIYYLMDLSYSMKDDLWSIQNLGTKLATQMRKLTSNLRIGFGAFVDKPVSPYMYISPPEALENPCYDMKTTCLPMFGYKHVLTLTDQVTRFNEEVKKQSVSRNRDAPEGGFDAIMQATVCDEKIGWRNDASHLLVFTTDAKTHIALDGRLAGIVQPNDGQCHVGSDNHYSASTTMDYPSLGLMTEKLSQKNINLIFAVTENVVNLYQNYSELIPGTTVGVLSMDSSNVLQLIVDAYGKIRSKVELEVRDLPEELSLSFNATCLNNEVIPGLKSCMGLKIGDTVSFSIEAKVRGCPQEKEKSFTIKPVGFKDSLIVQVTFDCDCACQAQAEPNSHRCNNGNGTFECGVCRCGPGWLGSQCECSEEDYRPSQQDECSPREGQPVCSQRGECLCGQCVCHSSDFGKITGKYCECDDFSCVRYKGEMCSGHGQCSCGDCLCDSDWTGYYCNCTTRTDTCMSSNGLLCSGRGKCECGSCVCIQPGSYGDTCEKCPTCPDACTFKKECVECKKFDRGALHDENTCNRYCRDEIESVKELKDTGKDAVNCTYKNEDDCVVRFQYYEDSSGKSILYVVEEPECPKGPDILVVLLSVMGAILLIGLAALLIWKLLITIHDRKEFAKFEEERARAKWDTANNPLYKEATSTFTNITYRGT
Substance,IC50 [1],Platelet Aggregation IC50 [2],"Platelet aggregation IC50 (nM), ADP [2]","Platelet aggregation IC50 (nM), Collagen [2]",IC50 [3]
trimucrin T/KRRR mutant,6580 nM,127 nM,127 nM,30.6 nM,–
trimucrin mutant T/IEEGKS,> 195000 nM,–,563 nM,632 nM,–
trimucrin mutant T/IEEGK,97600 nM,–,1050 nM,217 nM,–
trimucrin mutant T/K,27300 nM,–,563 nM,105 nM,–
trimucrin mutant T/KWN,1780 nM,–,125 nM,67.7 nM,–
trimucrin mutant T/IEEGKRR,33800 nM,–,511 nM,57.5 nM,–
trimucrin mutant T/KRR,7330 nM,–,213 nM,30.9 nM,–
trimucrin mutant T/KWNR,> 692 nM,–,54.6 nM,52.4 nM,–
trimucrin mutant T/KRRFH,5600 nM,–,192 nM,66.9 nM,–
trimucrin mutant T/KH,15700 nM,–,382 nM,99.3 nM,–
trimucrin mutant T/KWR,290 nM,–,106 nM,26.3 nM,–
rhodostomin mutant R/K,89.8 nM,–,152 nM,–,–
trimucrin mutant T/KR,6310 nM,–,141 nM,49.9 nM,–
trimucrin mutant T/KHR,5980 nM,–,256 nM,80.1 nM,–
trimucrin mutant T/KFRFH,3190 nM,–,120 nM,63.1 nM,–
rhodostomin,59.5 nM,83.2 nM,81.5 nM,66.8 nM,13 nM
trimucrin mutant T/MGKWN,1720 nM,–,78 nM,48.5 nM,–
trimucrin mutant T/KS,39900 nM,–,1080 nM,562 nM,–
trimucrin mutant T/KYR,1460 nM,–,117 nM,61 nM,–
trimucrin (TMV-7),–,–,184 nM,83.8 nM,–
trimucrin mutant T/KF,5550 nM,–,154 nM,68.9 nM,–
trimucrin mutant T/KRKR,13900 nM,–,138 nM,–,–
trimucrin mutant T/KY,3300 nM,–,246 nM,44.9 nM,–
